Measured values published in publication PMC6042069.
Where two headings read alike, the source gives them in different places.

Key:
Assay in all cases: EMSA
[1] = biological target: T1, PPARγ2;RXRα (mouse;human, UniProt P37238;P19793 1-505;1-462, |)
[2] = biological target: T1, PPARγ2;RXRα; remark: listed apart in the source
[3] = biological target: T1, PPARγ2;RXRα; remark: listed apart in the source

B1: LepRE1 LOF (dsDNA)
DNA 1: AAGATTTGAAATTTCCGCAGAATTGGCTGCAGC
DNA 2: GCTGCAGCCAATTCTGCGGAAATTTCAAATCTT
- binding result [1]: no binding

B2: LepRE1 EXT (dsDNA)
DNA 1: AAGATTTGAACTTTCCGCAGGATTGGCTGCAGC
DNA 2: GCTGCAGCCAATCCTGCGGAAAGTTCAAATCTT
- binding result [2]: binds

B3: LepRE1 DR1 (GOF) (dsDNA)
DNA 1: AAGATTTGAACTTTGAACTGAATTGGCTGCAGC
DNA 2: GCTGCAGCCAATTCAGTTCAAAGTTCAAATCTT
- binding result [3]: binds
